Laboratory results from the supplement of paper PMC5998384.

Key:
HeLa Kyoto [1] = assay: solubility change mitosis vs G1/S (difference of NP-40 vs SDS log2 ratios) (log2 ratio difference); higher = more soluble in mitosis
HeLa Kyoto [2] = assay: solubility in G1/S (NP-40 vs SDS abundance) (log2 ratio); higher = more soluble; conditions: cell cycle stage: G1/S
HeLa Kyoto [3] = assay: melting temperature (median over replicates), in situ; higher = more thermally stable
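For melting temperature (median over replicates), in situ in this document: HeLa Kyoto cells synchronized by double thymidine or nocodazole block, proteins quantified by TMT10plex mass spectrometry, three independent biological replicates.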
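For solubility change mitosis vs G1/S (difference of NP-40 vs SDS log2 ratios) in this document: synchronized HeLa Kyoto cells (double thymidine block for G1/S, nocodazole release for mitosis), protein amounts in NP-40 versus SDS lysates quantified by mass spectrometry, three biological replicates.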
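For solubility in G1/S (NP-40 vs SDS abundance) in this document: HeLa Kyoto cells arrested at G1/S by double thymidine block, proteins quantified by TMT10plex mass spectrometry in mild NP-40 versus SDS extracts, three biological replicates.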

HMGN3, sequence (chain, as listed by the source): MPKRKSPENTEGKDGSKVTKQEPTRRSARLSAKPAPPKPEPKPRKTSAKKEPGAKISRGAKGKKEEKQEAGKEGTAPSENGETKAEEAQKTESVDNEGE
GNPTG, sequence (chain, as listed by the source): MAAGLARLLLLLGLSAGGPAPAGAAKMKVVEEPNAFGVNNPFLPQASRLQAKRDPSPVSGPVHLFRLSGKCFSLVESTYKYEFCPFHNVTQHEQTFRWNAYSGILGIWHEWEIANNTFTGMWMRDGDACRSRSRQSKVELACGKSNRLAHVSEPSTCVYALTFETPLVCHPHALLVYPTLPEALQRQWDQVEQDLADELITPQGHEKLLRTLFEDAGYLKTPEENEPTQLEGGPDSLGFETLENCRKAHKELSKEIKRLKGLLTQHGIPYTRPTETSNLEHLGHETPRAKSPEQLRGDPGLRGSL
DNAJC19, sequence (chain, as listed by the source): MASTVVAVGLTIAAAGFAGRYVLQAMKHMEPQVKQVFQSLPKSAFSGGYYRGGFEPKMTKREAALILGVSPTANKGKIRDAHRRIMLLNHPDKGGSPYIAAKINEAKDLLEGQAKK
DNAJC15, sequence (chain, as listed by the source): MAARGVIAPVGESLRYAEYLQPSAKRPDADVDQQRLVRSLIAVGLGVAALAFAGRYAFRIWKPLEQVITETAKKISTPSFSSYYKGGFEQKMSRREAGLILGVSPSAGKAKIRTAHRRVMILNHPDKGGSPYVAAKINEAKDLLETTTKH
GNG12, sequence (chain, as listed by the source): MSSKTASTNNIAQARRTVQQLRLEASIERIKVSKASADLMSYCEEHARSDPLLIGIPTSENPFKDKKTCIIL
STK25, sequence (chain, as listed by the source): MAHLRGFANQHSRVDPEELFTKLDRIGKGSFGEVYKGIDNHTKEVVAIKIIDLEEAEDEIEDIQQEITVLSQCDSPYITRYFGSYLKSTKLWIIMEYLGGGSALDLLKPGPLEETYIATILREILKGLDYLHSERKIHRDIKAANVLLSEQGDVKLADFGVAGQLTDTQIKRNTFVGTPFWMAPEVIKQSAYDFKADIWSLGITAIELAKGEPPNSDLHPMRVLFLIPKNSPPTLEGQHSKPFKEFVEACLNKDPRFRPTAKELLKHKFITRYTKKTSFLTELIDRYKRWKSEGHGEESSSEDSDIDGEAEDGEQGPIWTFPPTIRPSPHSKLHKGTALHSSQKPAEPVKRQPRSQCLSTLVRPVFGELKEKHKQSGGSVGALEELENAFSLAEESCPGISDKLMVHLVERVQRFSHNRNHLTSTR
SENP3, sequence (chain, as listed by the source): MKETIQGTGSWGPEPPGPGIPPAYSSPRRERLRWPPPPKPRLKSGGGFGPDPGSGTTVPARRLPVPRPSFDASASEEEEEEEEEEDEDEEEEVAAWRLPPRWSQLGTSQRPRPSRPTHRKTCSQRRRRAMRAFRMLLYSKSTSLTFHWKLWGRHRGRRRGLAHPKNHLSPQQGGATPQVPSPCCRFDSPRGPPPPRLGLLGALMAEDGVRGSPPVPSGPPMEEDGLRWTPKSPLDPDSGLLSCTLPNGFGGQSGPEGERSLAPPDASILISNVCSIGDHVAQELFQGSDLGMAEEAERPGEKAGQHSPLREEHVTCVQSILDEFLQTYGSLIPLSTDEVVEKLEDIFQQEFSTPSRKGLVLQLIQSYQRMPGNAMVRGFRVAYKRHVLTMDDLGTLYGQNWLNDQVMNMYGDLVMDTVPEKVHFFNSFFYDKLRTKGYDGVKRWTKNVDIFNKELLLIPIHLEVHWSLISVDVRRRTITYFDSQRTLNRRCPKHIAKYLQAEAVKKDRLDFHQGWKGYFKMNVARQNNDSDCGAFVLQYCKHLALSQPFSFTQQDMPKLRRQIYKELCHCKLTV
POMGNT1, sequence (chain, as listed by the source): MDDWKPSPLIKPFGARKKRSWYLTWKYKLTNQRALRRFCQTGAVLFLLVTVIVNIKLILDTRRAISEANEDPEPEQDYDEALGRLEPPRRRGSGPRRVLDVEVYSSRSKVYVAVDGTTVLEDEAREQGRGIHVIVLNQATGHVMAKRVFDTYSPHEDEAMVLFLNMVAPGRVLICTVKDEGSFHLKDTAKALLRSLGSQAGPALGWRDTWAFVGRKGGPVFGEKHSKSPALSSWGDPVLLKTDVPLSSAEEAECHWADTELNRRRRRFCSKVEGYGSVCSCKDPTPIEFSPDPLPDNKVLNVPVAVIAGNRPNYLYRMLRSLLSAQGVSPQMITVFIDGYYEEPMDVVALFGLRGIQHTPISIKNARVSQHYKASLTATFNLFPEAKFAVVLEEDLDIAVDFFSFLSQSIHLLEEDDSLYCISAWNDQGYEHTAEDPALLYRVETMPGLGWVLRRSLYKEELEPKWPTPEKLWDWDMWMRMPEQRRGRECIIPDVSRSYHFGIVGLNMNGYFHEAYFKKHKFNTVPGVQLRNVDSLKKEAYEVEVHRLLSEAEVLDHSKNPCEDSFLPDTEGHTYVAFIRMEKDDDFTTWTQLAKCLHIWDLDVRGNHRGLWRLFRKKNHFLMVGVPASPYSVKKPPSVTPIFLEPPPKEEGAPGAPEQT

| Substance | solubility change mitosis (log2) (HeLa Kyoto [1]) | solubility in G1/S (log2) (HeLa Kyoto [2]) | melting temperature (HeLa Kyoto [3]; cell cycle stage: mitosis) [°C] | melting temperature (HeLa Kyoto [3]; cell cycle stage: G1/S) [°C] |
| --- | --- | --- | --- | --- |
| ABTB2 | -0.181 | 0.00296 | 48.8 | – |
| BCL9L | 0.083 | 0.294 | 54.4 | 55.7 |
| CHD8 | -0.0952 | -0.156 | 50.1 | 46.5 |
| CHD9 | 0.0275 | -0.312 | 50.1 | – |
| DNAJC15 | -0.164 | 0.11 | 51.2 | 51 |
| DNAJC19 | 0.348 | -0.0616 | 53.5 | 53.4 |
| GNG12 | 0.506 | -1.84 | 54 | 52.4 |
| GNPTG | 0.688 | -0.582 | 53.9 | 54 |
| H2AFV | 0.429 | -0.332 | – | 52.5 |
| HMGN3 | 1.55 | -0.266 | 56.8 | – |
| MAAAAAGAGSGPWAAQEKQFPPALLSFFIYNPRFGPREGQEENKILFYHPNEVEKNEKIRNVGLCEAIVQFTRTFSPSKPAKSLHTQKNRQFFNEPEENFWMVMVVRNPIIEKQSKDGKPVIEYQEEELLDKVYSSVLRQCYSMYKLFNGTFLKAMEDGGVKLLKERLEKFFHRYLQTLHLQSCDLLDIFGGISFFPLDKMTYLKIQSFINRMEESLNIVKYTAFLYNDQLIWSGLEQDDMRILYKYLTTSLFPRHIEPELAGRDSPIRAEMPGNLQHYGRFLTGPLNLNDPDAKCRFPKIFVNTDDTYEELHLIVYKAMSAAVCFMIDASVHPTLDFCRRLDSIVGPQLTVLASDICEQFNINKRMSGSEKEPQFKFIYFNHMNLAEKSTVHMRKTPSVSLTSVHPDLMKILGDINSDFTRVDEDEEIIVKAMSDYWVVGKKSDRRELYVILNQKNANLIEVNEEVKKLCATQFNNIFFLD [CCZ1] | -0.169 | 0.0726 | 51.8 | 50.9 |
| MAAAGARPVELGFAESAPAWRLRSEQFPSKVGGRPAWLGAAGLPGPQALACELCGRPLSFLLQVYAPLPGRPDAFHRCIFLFCCREQPCCAGLRVFRNQLPRKNDFYSYEPPSENPPPETGESVCLQLKSGAHLCRVCGCLGPKTCSRCHKAYYCSKEHQTLDWRLGHKQACAQPDHLDHIIPDHNFLFPEFEIVIETEDEIMPEVVEKEDYSEIIGSMGEALEEELDSMAKHESREDKIFQKFKTQIALEPEQILRYGRGIAPIWISGENIPQEKDIPDCPCGAKRILEFQVMPQLLNYLKADRLGKSIDWGILAVFTCAESCSLGTGYTEEFVWKQDVTDTP [PDCD2] | -0.0555 | -0.116 | 48.3 | 48.5 |
| MAAPEAPPLDRVFRTTWLSTECDSHPLPPSYRKFLFETQAADLAGGTTVAAGNLLNESEKDCGQDRRAPGVQPCRLVTMTSVVKTVYSLQPPSALSGGQPADTQTRATSKSLLPVRSKEVDVSKQLHSGGPENDVTKITKLRRENGQMKATDTATRRNVRKGYKPLSKQKSEEELKDKNQLLEAVNKQLHQKLTETQGELKDLTQKVELLEKFRDNCLAILESKGLDPALGSETLASRQESTTDHMDSMLLLETLQEELKLFNETAKKQMEELQALKVKLEMKEERVRFLEQQTLCNNQVNDLTTALKEMEQLLEM [KNSTRN] | 0.517 | 0.269 | 50.5 | 48.7 |
| MAAPEAWRARSCWFCEVAAATTMEATSREAAPAKSSASGPNAPPALFELCGRAVSAHMGVLESGVWALPGPILQSILPLLNIYYLERIEETALKKGLSTQAIWRRLWDELMKTRPSSLESVTCWRAKFMEAFFSHVLRGTIDVSSDRRLCDQRFSPLLHSSRHVRQLTICNMLQGATELVAEPNRRVLETLASSLHTLKFRHLLFSDVAAQQSLRQLLHQLIHHGAVSQVSLYSWPVPESALFILILTMSAGFWQPGPGGPPCRLCGEASRGRAPSRDEGSLLLGSRRPRRDAAERCAAALMASRRKSEAKQMPRAAPATRVTRRSTQESLTAGGTDLKRELHPPATSHEAPGTKRSPSAPAATSSASSSTSSYKRAPASSAPQPKPLKRFKRAAGKKGARTRQGPGAESEDLYDFVFIVAGEKEDGEEMEIGEVACGALDGSDPSCLGLPALEASQRFRSISTLELFTVPLSTEAALTLCHLLSSWVSLESLTLSYNGLGSNIFRLLDSLRALSGQAGCRLRALHLSDLFSPLPILELTRAIVRALPLLRVLSIRVDHPSQRDNPGVPGNAGPPSHIIGDEEIPENCLEQLEMGFPRGAQPAPLLCSVLKASGSLQQLSLDSATFASPQDFGLVLQTLKEYNLALKRLSFHDMNLADCQSEVLFLLQNLTLQEITFSFCRLFEKRPAQFLPEMVAAMKGNSTLKGLRLPGNRLGNAGLLALADVFSEDSSSSLCQLDISSNCIKPDGLLEFAKRLERWGRGAFGHLRLFQNWLDQDAVTAREAIRRLRATCHVVSDSWDSSQAFADYVSTM [LRRC41] | 0.0944 | -0.31 | 49.5 | 47.9 |
| MAAPSGTVSDSESSNSSSDAEELERCREAAMPAWGLEQRPHVAGKPRAGAANSQLSTSQPSLRHKVNEHEQDGNELQTTPEFRAHVAKKLGALLDSFITISEAAKEPAKAKVQKVALEDDGFRLFFTSVPGGREKEESPQPRRKRQPSSSSEDSDEEWRRCREAAVSASDILQESAIHSPGTVEKEAKKKRKLKKKAKKVASVDSAVAATTPTSMATVQKQKSGELNGDQVSLGTKKKKKAKKASETSPFPPAKSATAIPAN [C12ORF43] | 0.379 | -0.08 | 56.9 | 56.1 |
| MAAQGAAAAVAAGTSGVAGEGEPGPGENAAAEGTAPSPGRVSPPTPARGEPEVTVEIGETYLCRRPDSTWHSAEVIQSRVNDQEGREEFYVHYVGFNRRLDEWVDKNRLALTKTVKDAVQKNSEKYLSELAEQPERKITRNQKRKHDEINHVQKTYAEMDPTTAALEKEHEAITKVKYVDKIHIGNYEIDAWYFSPFPEDYGKQPKLWLCEYCLKYMKYEKSYRFHLGQCQWRQPPGKEIYRKSNISVYEVDGKDHKIYCQNLCLLAKLFLDHKTLYFDVEPFVFYILTEVDRQGAHIVGYFSKEKESPDGNNVACILTLPPYQRRGYGKFLIAFSYELSKLESTVGSPEKPLSDLGKLSYRSYWSWVLLEILRDFRGTLSIKDLSQMTSITQNDIISTLQSLNMVKYWKGQHVICVTPKLVEEHLKSAQYKKPPITVDSVCLKWAPPKHKQVKLSKK [KAT8] | -0.249 | -0.134 | 49.9 | – |

| Substance | solubility change mitosis (log2) (HeLa Kyoto [1]) | solubility in G1/S (log2) (HeLa Kyoto [2]) | melting temperature (HeLa Kyoto [3]; cell cycle stage: mitosis) [°C] | melting temperature (HeLa Kyoto [3]; cell cycle stage: G1/S) [°C] |
| --- | --- | --- | --- | --- |
| MAASRYRRFLKLCEEWPVDETKRGRDLGAYLRQRVAQAFREGENTQVAEPEACDQMYESLARLHSNYYKHKYPRPRDTSFSGLSLEEYKLILSTDTLEELKEIDKGMWKKLQEKFAPKGPEEDHKA [UQCC2] | 0.507 | 0.0537 | – | 45.6 |
| MAATMKKAAAEDVNVTFEDQQKINKFARNTSRITELKEEIEVKKKQLQNLEDACDDIMLADDDCLMIPYQIGDVFISHSQEETQEMLEEAKKNLQEEIDALESRVESIQRVLADLKVQLYAKFGSNINLEADES [PFDN4] | 0.523 | -0.219 | 53.5 | 55.5 |
| MAAVFDLDLETEEGSEGEGEPELSPADACPLAELRAAGLEPVGHYEEVELTETSVNVGPERIGPHCFELLRVLGKGGYGKVFQVRKVQGTNLGKIYAMKVLRKAKIVRNAKDTAHTRAERNILESVKHPFIVELAYAFQTGGKLYLILECLSGGELFTHLEREGIFLEDTACFYLAEITLALGHLHSQGIIYRDLKPENIMLSSQGHIKLTDFGLCKESIHEGAVTHTFCGTIEYMAPEILVRSGHNRAVDWWSLGALMYDMLTGSPPFTAENRKKTMDKIIRGKLALPPYLTPDARDLVKKFLKRNPSQRIGGGPGDAADVQRHPFFRHMNWDDLLAWRVDPPFRPCLQSEEDVSQFDTRFTRQTPVDSPDDTALSESANQAFLGFTYVAPSVLDSIKEGFSFQPKLRSPRRLNSSPRAPVSPLKFSPFEGFRPSPSLPEPTELPLPPLLPPPPPSTTAPLPIRPPSGTKKSKRGRGRPGR [RPS6KB2] | 0.0325 | -0.0277 | 50.9 | 51.3 |
| MAENHCELLSPARGGIGAGLGGGLCRRCSAGLGALAQRPGSVSKWVRLNVGGTYFLTTRQTLCRDPKSFLYRLCQADPDLDSDKDETGAYLIDRDPTYFGPVLNYLRHGKLVINKDLAEEGVLEEAEFYNITSLIKLVKDKIRERDSKTSQVPVKHVYRVLQCQEEELTQMVSTMSDGWKFEQLVSIGSSYNYGNEDQAEFLCVVSKELHNTPYGTASEPSEKAKILQERGSRM [KCTD5] | -0.0362 | 0.136 | 57.5 | 56.7 |
| MWRGRAGALLRVWGFWPTGVPRRRPLSCDAASQAGSNYPRCWNCGGPWGPGREDRFFCPQCRALQAPDPTRDYFSLMDCNRSFRVDTAKLQHRYQQLQRLVHPDFFSQRSQTEKDFSEKHSTLVNDAYKTLLAPLSRGLYLLKLHGIEIPERTDYEMDRQFLIEIMEINEKLAEAESEAAMKEIESIVKAKQKEFTDNVSSAFEQDDFEEAKEILTKMRYFSNIEEKIKLKKIPL [HSCB] | 0.307 | 0.296 | – | – |
| MWRMRGGATRRGSCCGGDGAADGRGPGRSGRARGGGSPSGGGGGVGWRGRADGARQQLEERFADLAASHLEAIRARDEWDRQNARLRQENARLRLENRRLKRENRSLFRQALRLPGEGGNGTPAEARRVPEEASTNRRARDSGREDEPGSPRALRARLEKLEAMYRRALLQLHLEQRGPRPSGDKEEQPLQEPDSGLRSRDSEPSGPWL [TUSC1] | 0.105 | 0.541 | – | – |
| MWTADEIAQLCYEHYGIRLPKKGKPEPNHEWTLLAAVVKIQSPADKACDTPDKPVQVTKEVVSMGTGTKCIGQSKMRKNGDILNDSHAEVIARRSFQRYLLHQLQLAATLKEDSIFVPGTQKGVWKLRRDLIFVFFSSHTPCGDASIIPMLEFEDQPCCPVFRNWAHNSSVEASSNLEAPGNERKCEDPDSPVTKKMRLEPGTAAREVTNGAAHHQSFGKQKSGPISPGIHSCDLTVEGLATVTRIAPGSAKVIDVYRTGAKCVPGEAGDSGKPGAAFHQVGLLRVKPGRGDRTRSMSCSDKMARWNVLGCQGALLMHLLEEPIYLSAVVIGKCPYSQEAMQRALIGRCQNVSALPKGFGVQELKILQSDLLFEQSRSAVQAKRADSPGRLVPCGAAISWSAVPEQPLDVTANGFPQGTTKKTIGSLQARSQISKVELFRSFQKLLSRIARDKWPHSLRVQKLDTYQEYKEAASSYQEAWSTLRKQVFGSWIRNPPDYHQFK [ADAT1] | -0.0783 | 0.316 | – | – |
| MWYHRLSHLHSRLQDLLKGGVIYPALPQPNFKSLLPLAVHWHHTASKSLTCAWQQHEDHFELKYANTVMRFDYVWLRDHCRSASCYNSKTHQRSLDTASVDLCIKPKTIRLDETTLFFTWPDGHVTKYDLNWLVKNSYEGQKQKVIQPRILWNAEIYQQAQVPSVDCQSFLETNEGLKKFLQNFLLYGIAFVENVPPTQEHTEKLAERISLIRETIYGRMWYFTSDFSRGDTAYTKLALDRHTDTTYFQEPCGIQVFHCLKHEGTGGRTLLVDGFYAAEQVLQKAPEEFELLSKVPLKHEYIEDVGECHNHMIGIGPVLNIYPWNKELYLIRYNNYDRAVINTVPYDVVHRWYTAHRTLTIELRRPENEFWVKLKPGRVLFIDNWRVLHGRECFTGYRQLCGCYLTRDDVLNTARLLGLQA [TMLHE] | 0.114 | -0.167 | – | – |
| NUFIP1 | 0.162 | -0.519 | – | – |
| POMGNT1 | -0.0514 | -0.257 | – | – |
| SENP3 | 1.04 | -1.5 | – | – |
| SIPA1L2 | 0.275 | -0.433 | – | – |
| STK25 | -0.12 | 0.291 | – | – |
| SYNJ2 | 0.309 | -0.61 | – | – |
| WDFY3 | 0.0228 | -0.364 | – | – |
